Assay [1] has as its target T1, human 6His-14-3-3ζ (human, UniProt P63104 1-245).
T1 sequence (looked up): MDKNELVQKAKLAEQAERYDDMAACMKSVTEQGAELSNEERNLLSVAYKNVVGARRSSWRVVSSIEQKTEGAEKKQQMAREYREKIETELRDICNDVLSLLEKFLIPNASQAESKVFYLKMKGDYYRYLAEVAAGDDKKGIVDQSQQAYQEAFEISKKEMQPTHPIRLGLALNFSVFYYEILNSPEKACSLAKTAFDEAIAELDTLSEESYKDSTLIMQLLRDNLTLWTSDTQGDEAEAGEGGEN
The assay can be described thus: pull-down.

The target in assay [2] is T1, human 6His-14-3-3ζ. The assay can be described thus: ITC.

Positions count from the first letter of the chain named. Names and notes keep the numbering of the source. Non-standard residues stand in square brackets, D forms with d. No end group written: not given here. pS = N[C@@H](COP(=O)(O)O)C(=O)O

“SNAP-TM-HCN1CT reporter also lacking the region containing peptide B (residues 790-820) (domain or fragment)”: the amount pulled down relative to CT (598-910) in the assay with human 6His-14-3-3ζ [1] is 0.23 fold.
Same read-out and setting: the result for “SNAP-TM-HCN1CT reporter lacking the distal 30 amino acid block with the TRIP8b-tripeptide binding site (domain or fragment)” reads 1.18 fold; that for “SNAP-TM-HCN1CT reporter lacking the region containing peptide C (amino acids 850-880) (domain or fragment)”, 0.61 fold.

B1: SNAP-TM-HCN1CT reporter truncated of residues 803-910 (domain or fragment, mouse, UniProt O88704 598-802, looked up)
chain: LNTGVFNNQENEILKQIVKHDREMVQAIPPINYPQMTALNCTSSTTTPTSRMRTQSPPVYTATSLSHSNLHSPSPSTQTPQPSAILSPCSYTTAVCSPPIQSPLATRTFHYASPTASQLSLMQQPQQQLPQSQVQQTQTQTQQQQQQQQQQQQQQQQQQQQQQQQQQQQQQQQQQQQQPQTPGSSTPKNEVHKSTQALHNTNLTK
B1: in the assay with human 6His-14-3-3ζ [1], the “amount pulled down relative to CT_(598-910)” value amounted to 0.2 fold.

B2: SNAP-TM-HCN1CT reporter CT_(731-910) (domain or fragment, mouse, UniProt O88704 731-910, looked up)
chain: VQQTQTQTQQQQQQQQQQQQQQQQQQQQQQQQQQQQQQQQQQQQQPQTPGSSTPKNEVHKSTQALHNTNLTKEVRPLSASQPSLPHEVSTLISRPHPTVGESLASIPQPVAAVHSTGLQAGSRSTVPQRVTLFRQMSSGAIPPNRGVPPAPPPPAAVQRESPSVLNTDPDAEKPRFASNL
Take B2: in the assay with human 6His-14-3-3ζ [1], the “amount pulled down relative to CT_(598-910)” value was determined as 1.39 fold.

B3: SNAP-TM-HCN1CT reporter CT_(731-910; S810A; S867A) (domain or fragment, mouse, UniProt O88704 731-910, looked up)
chain: B2 chain with S80A, S137A
On to B3, for which, in the assay with human 6His-14-3-3ζ [1], the “amount pulled down relative to CT_(731-910)” value is 0.33 fold.

B4: HCN1 phospho-peptide A (peptide)
peptide: SRMRTQ[pS]PPVY
In the assay with human 6His-14-3-3ζ [2], B4 showed a Kd of 16 µM.

B5: HCN1 phospho-peptide C (peptide)
peptide: TLFRQM[pS]SGAI
Molecule B5 came in with a Kd in the assay with human 6His-14-3-3ζ [2] of 15 µM.

B6: SNAP-TM-HCN1CT reporter CT_(731-910; Δ804-814; Δ861-871) (domain or fragment, mouse, UniProt O88704 731-910, looked up)
chain: VQQTQTQTQQQQQQQQQQQQQQQQQQQQQQQQQQQQQQQQQQQQQPQTPGSSTPKNEVHKSTQALHNTNLTKEPHEVSTLISRPHPTVGESLASIPQPVAAVHSTGLQAGSRSTVPQRVPPNRGVPPAPPPPAAVQRESPSVLNTDPDAEKPRFASNL
Turning to B6, in the assay with human 6His-14-3-3ζ [1], the “amount pulled down relative to CT_(731-910)” value came out at 0.26 fold.

B7: HCN1 phospho-peptide B (peptide)
peptide: VRPLSA[pS]QPSL
Regarding B7, in the assay with human 6His-14-3-3ζ [2], binding was characterised by a dissociation constant (Kd) of 25 µM.
